Data on one molecule can be found in publication PMC10344899, “ZmmiR169q/ZmNF-YA8 is a module that homeostatically regulates primary root growth and salt tolerance in maize”.

The series addresses T1, ZmNF-YA8 (Zea mays, UniProt B6SPD7 2-301).
T1 sequence: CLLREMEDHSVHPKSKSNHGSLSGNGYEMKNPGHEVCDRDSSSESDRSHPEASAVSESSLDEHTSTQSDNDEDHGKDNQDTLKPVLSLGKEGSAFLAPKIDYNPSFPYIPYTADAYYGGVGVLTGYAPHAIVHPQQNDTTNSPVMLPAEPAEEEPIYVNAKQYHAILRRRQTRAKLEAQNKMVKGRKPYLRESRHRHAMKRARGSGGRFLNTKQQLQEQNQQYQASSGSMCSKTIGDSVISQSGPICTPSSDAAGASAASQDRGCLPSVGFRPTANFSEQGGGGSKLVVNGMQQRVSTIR
Description: EMSA; shifted band reduced by 20x unlabelled probe and eliminated at 40x; 20 min incubation; nondenaturing 4% polyacrylamide gel, 0.5x TBE; LightShift Chemiluminescent EMSA kit; binding buffer, salt, pH and temperature not stated. The settings on record: protein: recombinant; tags: His (pET28a); blunt. A general note: A gel shift assay detects complexes by their altered migration in electrophoresis.

B1: ZmERF1B promoter P1 CCAAT-box EMSA probe (dsDNA)
DNA 1: GGCGCGCATTCGCCTCGCCTCCAATTCCCATCCATCACTAACTTG
DNA 2: CAAGTTAGTGATGGATGGGAATTGGAGGCGAGGCGAATGCGCGCC
On to B1, for which the binding result is listed as “binds”.
